Experiments:
[1] = test system: D. castellii phytase; assay: Kinetic constants of the native phytase on substrates; assay type: biochemical, Debaryomyces castellii; conditions: +37° C., pH 4 with sodium phytate, pH 5.5 with p-NPP
Description: (§1) The effect of pH on the phytase activity is determined using the following buffer solutions: 200 mM glycine-HCl, pH 2-3.5; 200 mM sodium acetate-acetic acid, pH 3.5-7; and 200 mM tris-HCl, pH 7-9. The reactions are carried out at +37° C. using the phytate as substrate. The optimum temperature is determined by varying the temperature from +30° C. to +80° C. […] After the heat treatment, the mixture is cooled in ice and the phytase activity is determined using the phytate as substrate.
(§2) The kinetic constants are determined on 2 substrates.

[2] = target: T1, recombinant Debaryomyces castellii CBS 2923 phytase (recPhyt, expressed in Pichia pastoris), SEQ ID No. 2 (Schwanniomyces capriottii, UniProt A2TBB4); conditions: recombinant enzyme, Lineweaver-Burk; 37° C.; pH 4 for sodium phytate, pH 5.5 for p-NPP
[3] = target: T2, Debaryomyces castellii CBS 2923 phytase, native (wild type), SEQ ID No. 2 (Schwanniomyces capriottii, UniProt A2TBB4); assay: Kinetic constants (specificity study) of the native phytase; assay type: biochemical; conditions: native enzyme, 37° C.; pH 4 for sodium phytate, pH 5.5 for p-NPP
Description: as §1
(§3) The amount of phosphate released is measured by colorimetery. The visualizing solution, prepared extemporaneously, contains iron sulphate (380 mM, 1 volume) and ammonium heptamolybdate (12 mM, 4 volumes). The absorbance at 700 nm is measured after 30 minutes of visualization at ambient temperature (1 volume of reaction medium+1 volume of visualizing solution), using a UV/visible spectrophotometer (Beckman DU 530).
as §2

[4] = test system: recombinant phytase; assay: Kinetic constants of the recombinant phytase on substrates; assay type: biochemical, Debaryomyces castellii; conditions: Lineweaver-Burk representation
[5] = test system: D. castellii phytase; assay: Substrate specificity, phosphate release kinetics (Table 6A); assay type: biochemical, Debaryomyces castellii; conditions: substrate 4 mM; 250 mM sodium acetate buffer, 1 mM CaCl2, pH 4, 37° C.
Description: The reaction is triggered by the addition of the enzymatic extract (1 volume). The reaction is stopped by acidification of the medium with 20% trichloroacetic acid (1 volume of reaction medium+1 volume of acid). The amount of phosphate released is determined after various incubation times.

[6] = test system: Schwanniomyces occidentalis phytase; conditions: Segueilha et al., 1992; cited from earlier work
[7] = target: T2, Debaryomyces castellii CBS 2923 phytase, native (wild type), SEQ ID No. 2; assay: Influence of effectors on the phytase activity; assay type: biochemical; conditions: Table 3
Description: as §3

[8] = test system: Schwanniomyces occidentalis phytase; conditions: Segueilha et al., 1992; cited from earlier work; remark: listed apart in the source
[9] = test system: D. castellii phytase; assay: Influence of effectors on phytase activity; assay type: biochemical, Debaryomyces castellii
[10] = target: T1, recombinant Debaryomyces castellii CBS 2923 phytase (recPhyt, expressed in Pichia pastoris), SEQ ID No. 2; assay: Hydrolysis of inositol phosphates by the recombinant phytase (chromatogram); assay type: biochemical; conditions: InsP3 compared with InsP4, InsP5 and InsP6
Description: (§4) Samples are taken at various times for 6 hours. The reaction is stopped by heating at 100° C. (10 minutes).
(§5) J. Agric. Food Chem. 45, 431-436; Türk, M., Sandberg, A. S., Carlsson, N. G. and Andlid, T. (2000) Inositol hexaphosphate hydrolysis by baker's yeast. Capacity, kinetics, and degradation products. J. Agric. Food Chem. 48, 100-104). […] This system makes it possible to detect the Ins P2 to Ins P6, but only the various isomers of Ins P4 and Ins P5 can be separated.
See Example 1, 7.5 and 7.6.

[11] = test system: Debaryomyces castellii CBS2923 phytase; assay: Influence of the environment (additives, calcium, buffer molarity) on thermostability of the phytase; assay type: physicochemical; conditions: control: 250 mM acetate buffer pH 4, 1 mM calcium chloride, no additive
Description: At the end of treatment, the extract is cooled in water at +4° C. […] Three types of elements are tested: • sugars or sugar alcohol: sucrose, lactose, trehalose, arabinose, glycerol, • the absence of calcium, • the molarity of the buffer. […] At the end of treatment, the extract is cooled in water to +4° C. […] Materials and Methods).

[12] = Specific phytase activity by phytate hydrolysis; assay type: biochemical; conditions: native D. castellii phytase, purification steps
Description: The protein content is determined by the Bradford method (Bradford, M. (1976) A rapid and sensitive method for the quantification of microgram quantities of proteins utilizing the principle of protein-dye binding. Anal. Biochem. 72, 248-254). (Biorad Protein Assay Dye Reagent Concentrate, BIORAD 500-0006), the absorbance is measured at 595 nm (Beckman DU 530 UV/visible spectrophotometer). The calibration is carried out with a bovine serum albumin range.
One enzymatic unit (U) is defined as the amount of enzyme which releases one μmol of inorganic phosphate in one minute.
as §3

[13] = Phytase activity as a function of temperature; assay type: biochemical; conditions: reaction of phytate hydrolysis
Description: FIG. 2: Activity of the D. castellii phytase as a function of temperature. The activity is measured at pH 4, at 37° C. for 20 minutes.
as §1
The optimum temperature is determined on the native phytase, by measuring the phytase activity at various temperatures: from 30 to 80° C. (FIG. 2).

[14] = Hydrolysis kinetics of InsP6 followed by NMR; assay type: biochemical
Description: The time period between two spectra is 23 minutes. After an overnight period, 20 μl of enzyme were added in order to accelerate the reaction. After 16 h, the hydrolysis is complete and the spectrum characteristic of inositol is obtained (top spectrum). These kinetics clearly show the successive appearance of InsP5, of InsP4 and of InsP3.
FIG. 10: Faster kinetics making it possible to follow the complete hydrolysis of InsP6 (600 MHz, 17° C., 500 μl D2O, 3.8 mM of InsP6, pH 4.0, 5 μl of enzyme). A spectrum was recorded every 3 min for 20 h (400 spectra). After 10 hours, the hydrolysis is virtually complete. The spectra plotted correspond to one spectrum out of 10 (30 min between two spectra). Some characteristic signals are annotated.
The sample used to follow the hydrolysis by NMR is prepared from a stock solution of InsP6/phosphate buffer, 96/700 mM in D2O. […] Depending on the desired rate of hydrolysis, a greater or smaller amount of enzyme (1 to 20 μl of the stock solution at 3 U/ml) is added. The kinetics are followed at 17° C. by recording a spectrum (32 scans) every 3 minutes for 20 hours (400 spectra). Using the spectra characteristic of the various inositol phosphates determined previously, their appearance and disappearance can be followed over the entire kinetics.
Depending on the temperature (in this case 17° C.) and on the concentration of enzyme, kinetics can be slow (1 μl of enzyme) and the appearance of the first intermediates readily observed. It is under these conditions that the spectral characteristics of InsP5 were obtained and that the successive appearance of Ins P5, Ins P4 and Ins P3 is clearly seen.
In the presence of 5 μl of enzyme, the formation of Ins P2, Ins P1 and inositol is observed. In the intermediate phase, the complexity of the spectra obtained accounts for the mixture of the Ins Pns. After hours, the hydrolysis is not complete. In the presence of 20 μl of enzyme, complete hydrolysis was obtained in approximately 4 hours. […]

[15] = Heat denaturation / heat stability of the phytase; assay type: physicochemical
Description: FIG. 3: Heat denaturation of the D. castellii phytase. […] The activity is then measured at 37° C. for 20 min.
as §1
It is denatured above 68° C., with a 70% loss of activity after one hour at 70° C. The energy for activation of the denaturation, calculated by means of the Arrhenius representation, is 606 kJ/mol.

[16] = Storage stability of the phytase at -20° C. at various pHs; assay type: physicochemical
[17] = pH-stability and temperature-stability of the phytase; assay type: physicochemical; conditions: for denaturation: 1 hour
Description: FIG. 4: Study of the pH-stability and temperature-stability. The phytase activity of D. castellii is measured after treatment of the extract at various pHs for 1 hour at two temperatures (40° C. or 60° C.). The activity is measured at pH 4.
The phytase activity is measured after incubation of the enzyme at 2 temperatures (40 and 60° C.) in buffers whose pH is between 2 and 8 (FIG. 4). […] On the other hand, in the range 3 to 7, from 80 to 100% of activity is conserved at 40° C. At 60° C., the phytase is more highly denatured at pH 3 and pH 8.

[18] = Hydrolysis of phytic acid followed over time (HPIC, phosphate assay); assay type: biochemical; conditions: after 300 minutes of hydrolysis, pH 4, 0.6 U/ml
Description: as §4, §5
The hydrolysis conditions are described in Materials and Methods. The appearance of the various Ins Pn is monitored over time. After 15 minutes of hydrolysis, Ins P6 has virtually disappeared, 4 major peaks are detected and correspond to Ins (1,2,4,5,6) P5, Ins (1,2,5,6) P4, and peaks of Ins P3, Ins P2 and Ins P1 not identified by this method (FIG. 7). The assignment of the Ins P5 and Ins P4 is confirmed by the addition of authentic inositol samples. After 120 minutes of hydrolysis, the Ins P3 and Ins P1 peaks are predominant. This could reflect a much slower rate of hydrolysis of Ins P3 compared with Ins P4, 5 and 6. […] The enzyme releases all the phosphates. The characterization of the Ins Pn fractions separated by chromatography is carried out by NMR analysis.

With `O=[N+]([O-])c1ccc(OP(=O)(O)O)cc1` [pNPP, p-nitrophenyl phosphate] the Km [1] was 2270 µM, the Vm [1] was 30.9 µmol/min/mg and the Km [2] was 2050 µM. It also gave a Km [3] of 2270 µM, a Km [4] of 2050 µM and a Vm [4] of 274.6 U/mg. For the same molecule, the “% activity” value [5] was 135%.

For `O=C(O)c1cc[c]([Hg][Cl])cc1` [PCMB], the “effect on phytase activity” value [6] is given as “greatly inhibits”, the “effect on the phytase activity (in words)” value [7] is given as “not sensitive” and the “inhibition of the activity (in words)” value [8] is given as “greatly inhibits”. For the same molecule, the “% activity” value ([9]; effector 3 mM, phytate control = 100) was 94.5% and the “effect on phytase activity” value ([9]; inhibitors tested, see Table 3) was “absence of effect”.

In the case of InsP3, the “affinity (in words)” value [10] is reported as “weaker affinity”.

B1: D. castellii phytase: Debaryomyces castellii CBS 2923 phytase of SEQ ID No. 2, a secreted glycosylated 3-phytase (protein, listed as Debaryomyces castellii)
chain: MVSVSKLINNGLLLVGQGAYQDLASPQQASVEQYNIIRFLGGAAPYIQNKGFGISTDIPDQCTLEQVQLFSRHGERYPSTGSGKKYKAVYEKLMSYNGTFKGELAFLNDDYEYFVPDSVYLEKETSPKNSDSIYAGTTDAMKHGIAFRTKYGELFDTNDTLPVFTSNSGRVYQTSQYFARGFMGDDFSNDTVKTNIISEDADMGANSLTPRDGCFNYNENANTAIVDEYTTEYLTKALNRFKASNPGLNITEDDVSNLFGYCAYELNVKGASPMCDIFTNEEFIQYSYSVDLDDYYSNSAGNNMTRVIGSTLLNASLELLNHDKNENKIWLSFTHDTDIEIFHSAIGILIPDEDLPVDYTPFPSPYSHVGITPQGARTIIEKYACGNESYVRYVINDAVIPIKKCSSGPGFSCNLNDYNDYVAERVAGTNYVEQCGNNNASAVTFYWDYETTNYTASLINS
modifications: glycosylated
For B1, the “activity after 1 h at 20° C.” value [11] was 99, the “activity after 1 h at 66.5° C.” value [11] was 47 and the Specific activity [12] was 156 U/mg. For the same molecule, the “activation energy calculated according to the Arrhenius representation” value [13] was 9.08 kcal/mol, the “time after which hydrolysis of InsP6 is complete” value ([14]; 1.7 mM InsP6, pH 4.0, 17° C., 1 μl enzyme, 20 μl added after an overnight period) was 16 h and the “time after which hydrolysis of InsP6 is virtually complete” value ([14]; 3.8 mM InsP6, pH 4.0, 5 μl of enzyme, 17° C.) was about 10 h. For the same molecule, the “time to complete hydrolysis of InsP6” value ([14]; 20 μl of enzyme, 17° C.) was “approximately 4 hours”, the loss of activity ([15]; after one hour at 70° C.) was 70% and the “energy for activation of the denaturation (Arrhenius representation)” value ([15]; heat denaturation) was 145 kcal/mol. For the same molecule, the “temperature above which the enzyme is denatured” value ([15]; heat denaturation study) was “above 68 °C”, the “temperature up to / below which the enzyme is stable” value ([15]; heat denaturation study) was “up to 66 °C” and the “temperature at which the enzyme is stable for one hour” value ([15]; in 125 mM acetate buffer, pH 4) was 66 °C. For the same molecule, the “temperature at which the enzyme is stable for one hour” value ([15]; in water) was 60 °C, the denaturation after storage ([16]; 21 days at -20° C., pHs of less than 5) was “completely denatured” and the denaturation after storage ([16]; 67 days at -20° C., pHs of between 5 and 7) was “no denaturation”. The “activity after 1 hour of contact” value ([17]; pH 2 and pH 8, 40 and 60° C.) was “complete loss of activity”, the denaturation ([17]; pH 8, acetate buffer) was “complete” and the denaturation ([17]; pH 8, tris HCl buffer) was 50%. The “amount of phosphate assayed as share of the potential phosphates of the phytate molecule” value [18] was 100%.
